Source: the DeepSol protein solubility set

Assay: soluble on expression in E. coli; label from the status in PepcDB or PDB records

**Q.** With “MAHHHHHHMSNELLQGAALYKELLCVYHNLAESELGLSGGDVGALFQIKENLSQPISCDIQKCKEILTKLKLVLIHLPSVDPLVPIGKKNINELLLARHILEKGVIISILDRDIKAFSIYMAQLLLYYFDYCNFLPKSGNQNGIIGMYLLYLLSSNLIGDFHMTLEVISIEDQSDEYIKYALELEQHIMDGYFHHVLTKKENIPLYLYSLFIERLYNTIRHKLADCLFASSNCISSEYACELLKLGSEQELCQFIGEYNEAKTSQGECNLLWEVRNKKIYFNNQTVHVQDLPALEVLNNTIGYATELERIV” as the sequence, how does the “soluble on expression in E. coli” value read?
**A.** not soluble

**Q.** For “MNGGGKNVLNKNSVGSVSEVGPDSTQEETPRDVRLLHLLLASQSIHQYEDQVPLQLMDFAHRYTQGVLKDALVYNDYAGSGNSAGSGLGVEDIRLAIAARTQYQFKPTAPKELMLQLAAERNKKALPQVMGTWGVRLPPEKYCLTAKEWDLEDPKSM”, which “soluble on expression in E. coli” value is on record?
**A.** not soluble

**Q.** With “MSLNTQDFLAGYTKRFVDNKEEDMSLDEYLELCKTDPTAYANPAERLLMAIGEPELIDTRHDPVLSRIFSNKIIHHYEVFKDFYGMEEPIEQIVGFLKHAAQGLEETKQVLYLLGPVGGGKSSIAEKLKDLMERIPFYAIKGSPVFESPLSLFNPLEDGELLRERFGIPTRYLRYLMSPWAVKRLQEYNGDISKFRVIKVKPSRLKQIAIAKTEPGDENNQDISSLVGKVDIRKLEEFSQDDPDAYSYSGGLCRANRGLLEFVEMFKAPIKVLHPLLTATQEGNYNATEGLSAIPFEGIILAHSNESEWQSFRNNEGHHHHHH” as the sequence, how does the “soluble on expression in E. coli” value read?
**A.** not soluble

**Q.** For “KQVENYDSWEDLVSSIDTIERKDDGTLEIYLTWKNGAISHHPSTITNKKCPQKMLQFYESHLTFRENE”, which “soluble on expression in E. coli” value is on record?
**A.** soluble

**Q.** With “MGSDKIHHHHHHMKKHKIGIYEKALPKNITWQERLSLAKACGFEFIEMSIDESNDRLSRLNWTKSERIALHQSIIQSGITIPSMCLSAHRRFPFGSKDKKIRQKSFEIMEKAIDLSVNLGIRTIQLAGYDVYYEKQDEETIKYFQEGIEFAVTLAASAQVTLAVEIMDTPFMSSISRWKKWDTIINSPWFTVYPDIGNLSAWNNNIEEELTLGIDKISAIHLKDTYPVTETSKGQFRDVPFGQGCVDFVHFFSLLKKLNYRGAFLIEMWTEKNEEPLLEIIQARKWIVQQMEKAGLLC” as the sequence, how does the “soluble on expression in E. coli” value read?
**A.** not soluble

**Q.** With “MDVIKISPRGYCYGVVDAMVIAKNASLDKSLPRPIYILGMIVHNKHVTDAFEEEGILTLDGSNRLDILKQVDKGTVIFTAHGVSPEVRRIAEEKGLVAIDATCPDVTKTHNLILEMKEKGYHVIYIGKKGHPEPEGAVGVAPEIVHLVETEEDVKNLDIQSEKLIVTNQTTMSQWDVHDIMELVKEKYPHVEYHQEICLATQVRQEAVSEQAKKADLTIVVGDPKSNNSNRLAQVSEEIAGTKAYRIGDLSELKLEWLKGVNTVAVTAGASTPTPITKEVIRFLEQFDHEDPSTWTTEHNIPLKKILPKVKAKN” as the sequence, how does the “soluble on expression in E. coli” value read?
**A.** not soluble

**Q.** Which “soluble on expression in E. coli” value does the source give for “MVAATSQNTFDSPRSPLYNFTMDIRPLSDVAGVILVGGRSRRMGRDKALIPLGGKPLVERVIDAFRPLFERILLVGDRGERFASYGLPVFPDIHPGSALGGLYTGLVRAGTPHVFVSACDVPWPDPRVIARLCSLREGFDVVVPRTVGGSEPLFAVYGTGCLPAMERMLREGNYRIYDFYPEVRTRYVEQAELADLVTPARTFVNVNTPEEFETIRNREEGMAIKAVSFVAKSGTGKTTLLEKVIAELKGRGYRIGVIKHDAHRFDIDHPGKDSHRLAAAGADTMLIASPEKLALVKKYDESPPLDELLATYFGDVDIVLTEGFKKSSLPKIEVHRMERSATLLCRGEEHDPTLVAVASDAALALDVPVFDLNNPAQVADFVERTFLAAGAALEHHHHHH” here?
**A.** soluble

**Q.** Which “soluble on expression in E. coli” value does the source give for “MSLNQASLERNELHNTIWKVANELRGSVDGWDFKQYVLGILFYRYISENMTHYINKEERKRDPSFDYAKLSDEKAERGRKHLIEQKGFFIPPSALFCNALKNACHNEDLNVTLQNIFNEIEKSSLGTPSEENVKGLFADLDVNSNKLGSSHQNRVEKLTKILEAIGGMQLGDYLKSGIDVFGDAYEYLMAMYASNAGKSGGEFFTPQEVSELLAKITLHGQESVNKVYDPCCGSGSLLLQFSKVLGDKNVSKGYFGQEINLTTYNLCRINMFLHDINYSKFHIAHGDTLLDPKHEDDEPFDAIVSNPPYSTKWVGDSNPILINDERFSPAGVLAPKNAADLAFTMHMLSYLSNSGTAAIVEFPGVLYRGNAEAKIREYLVKENVIDCVIALPDNLFFGTSIATCILVLKKNKQDDTTLFIDASKEFVKEGKKNKLKERNREKILQTYIERKEIKHFCALANIEKIKENDYNLSVNRYVEQEDTKEAIDIKALNSEIAQIVEKQSALRNRLESIIKELEGGQNEGHHHHHH” here?
**A.** soluble

**Q.** For “MKRLLLYVHFNKYNRVSSHVVYQLTQMRSLFSKVIFISNSQVADADVKMLREKHLIDDFIQRQNSGFDFAAWRDGMVFVGFDELVTYDSVTTMNDTCFGPLWEMYSIYQEFETKTTVDFWGLTNNRATKSFREHIQSYFISFKASVLRSTAFRDFWENIKEYQDVQKVIDQYETKVTTTLLDAGFQYDVVFDTTKEDASHMLHADFSYYNPTAILNHRVPFIKVKAIDNNQHITPYLLNDIQKNSTYPIDLIVSHMSEINYPDFSYLLGHKYVKKRERVDLKNQKAAVHLHVFYVDLLEEFLTAFKQFHFSYDLFITTDSDDKKAEIEEILSANSQEAQVFVTGNIGRDVLPMLKLKNYLSTYDFVGHFHTKKSKEADFWAGQSWREELIDMLVKPADNILAQLQQNPKIGLVIADMPTFFRYNKIVDAWNEHLIAPEMNTLWQKMGMTKKIDFNAFHTFVMSYGTFVWFKYDALKPLFDLNLTDDDVPEEPLPQNSILHAIERLLIYIAWNEHYDFRISLEHHHHHH”, which “soluble on expression in E. coli” value is on record?
**A.** not soluble

**Q.** Which “soluble on expression in E. coli” value does the source give for “MSATAKHDSNASPNSDSEDGHHHNNKKECAIEYLKARLNSASAVACGYLQAFVSKTQDFAKVCFLELQNPVVLVNLLLHSSVVCYLCNGYANHNARFLKGKPNSTVLATTAGALGLLTLDGIISKKYYSRYDKK” here?
**A.** soluble

**Q.** With “MSEIHAGGCHCGRLRYQFDAPLKDIAHCHCSICWRTSGATVVTWISVPLASFKWLTGSPAAYDSAATCVRYFCGNCGAHMALFTRNSPNEMDVTIATLDQPELAVPSRHIWIENRLPWLHLDEDLPGDEGEP” as the sequence, how does the “soluble on expression in E. coli” value read?
**A.** not soluble

**Q.** For “MNVPGAAPFLTAQSEEEATEVLESIHPDPEKSGARYIMSDERMAVDIFMAMPEWTLDTEGYMQPYWTGDGYQYLPSKRYFDSMESRLHFLDGNGLKQYRLVYETWAYQTQEAGYKQVYNFLYGSSIPEVDSGYVKIFEYVKGAKITGTVSPNETVNINTTILTGQGRTFELEHHHHHH”, which “soluble on expression in E. coli” value is on record?
**A.** soluble

**Q.** Which “soluble on expression in E. coli” value does the source give for “MSLKDYRLFLIDLDGTIYRGKETIESGVRFVKRLDEAGLDYLFLTNNTTRTPQMVADKLAGHGVKTDVSKIYTPSMATASYILEKEAKRPIGVYIIGQIGLWKEILDRPEFYYDEENPDYVIVGMDTDLTYHKLMVATRCIHRGAVFIGTNSDQNLPVGKELRPGNGSICAALEVASGQKPLFIGKPEAIIVNRALDLAGVKAEEALIVGDNYPTDIMAGINSGVDTLLTLTGVTQKADLAGLTPPTYLVNDLDEFSEGHHHHHH” here?
**A.** soluble

**Q.** Which “soluble on expression in E. coli” value does the source give for “MADRRRTDDNKGAREVVLLLNIGSPDSPEEKDVARYLNSFLTDRRIITLPFLLRQLLVRGIITPFRKKSSAQKYRTVWDESTRSFPLISHTKAIARALAHTGREVHVAMRYGKPAVADVLKELPHGRSLVVLPLFPHYAMSSYETAVEHCKAEIRRLCPNLSFRVVQPFYAHEAYIRVLADNIRPYLTKPFDKLILSYHGIPRDHLDKTTRQALNLRHPEGCCTEEDPTANVCYRYQTYRTTALIREALGLAEEQVEQVFQSRVGHTEWLRPYLIERLSAWPQEETKRILIACPSFVCDCLESLEEVADHGQSIFKKAGGADFTYIPCLNSGANWIDALRNILEE” here?
**A.** not soluble

**Q.** For “SLTSEMIENIQSVKAYCWEEAMEKSGGGSGGGSGGGSGGGIENSHVKKDDIWPSGGQMTVKDLTAKYTEGGNAILENISFSISPGQRVGLLGRTGSGKSTLLSAFLRLLNTEGEIQIDGVSWDSITLEQWRKAFGVIPQKVFIFSGTFRKNLDPYEQWSDQEIWKVADEVGLRSVIEQFPGKLDFVLVDGGCVLSHGHKQLMCLARSVLSKAKILLLDEPSAHLDPVTYQIIRRTLKQAFADCTVILCEARIEAMLECDQFLVIEENKVRQYDSIQKLLNERSDFRQAISPSD”, which “soluble on expression in E. coli” value is on record?
**A.** soluble

**Q.** Which “soluble on expression in E. coli” value does the source give for “MEKLVAYKRMPLWNKQTMPEAVQQKHNTKVGTWGKITVLKGALKFIELTEEGEVLAEHLFEAGADNPMAQPQAWHRVEAATDDVEWYLEFYCKPEDYFAKKYNTNPVHSEVLEAMQTVKQGKALDLGCGQGRNSLFLAQQDFDVTAVDQNGLALEILQSIVEQEDLDMPVGLYDINSASIEQEYDFIVSTVVLMFLQADRIPAIIQNMQEKTSVGGYNLIVCAMDTEDYPCSVNFPFTFKEGELADYYKDWELVKYNENPGHLHRRDENGNRIQLRFATLLAKKIK” here?
**A.** not soluble

**Q.** Which “soluble on expression in E. coli” value does the source give for “SGKTSQRKQCDCENPSKPCLSTSIPLRMSSYTFKRPVTKITSHLGNEVRYYQWEETFKKPEQACWQKRLQGLQAYSSAGELLSTSDLAKTLKDLTSTDTVASASDTQAASIDITSVPTLESSSHLANMIPEAGPQILCKEFLVTEQDIINQERKVKIARERLAVALIAHKLASEMETVRGSRKANL” here?
**A.** soluble

**Q.** With “MGSAVIRVLSYNIRSMRDDTAALARVISACEPDLVLVQEAPRFFRWRKKLAPLASACGQVVLSGGATAAGPALLCSLRATVERTEDVLLPLTPGLHRRGFATAVVRFGRARLGVLSCHLSLQKNERYEQGGMLLDHLARLGTPHAIAGGDLNERPDGRTFKRLASELRDCWATAPWGAEYTSTPADPHQRIDAILATPGIEVLACGVPLGHPGVTEADLRAATDHLPVLAALRVPASLEHHHHHH” as the sequence, how does the “soluble on expression in E. coli” value read?
**A.** not soluble

**Q.** With “MGSDKIHHHHHHMSEATLLSYTKKLLASPPQLSSTDLHDALLVILSLLQKCDTNSDESLSIYTKVSSFLTALRVTKLDHKAEYIAEAAKAVLRHSDLVDLPLPKKDELHPEDGPVILDIVGTGGDGQNTFNVSTSAAIVASGIQGLKICKHGGKASTSNSGAGDLIGTLGCDMFKVNSSTVPKLWPDNTFMFLLAPFFHHGMGHVSKIRKFLGIPTVFNVLGPLLHPVSHVNKRILGVYSKELAPEYAKAAALVYPGSETFIVWGHVGLDEVSPIGKTTVWHIDPTSSELKLKTFQLEPSMFGLEEHELSKCASYGPKENARILKEEVLSGKYHLGDNNPIYDYILMNTAVLYCLSQGHQNWKEGIIKAEESIHSGNALRSLEHFIDSVSSL” as the sequence, how does the “soluble on expression in E. coli” value read?
**A.** not soluble

**Q.** With “MGSDKIHHHHHHVKKQVPDKTELGRTRVLVVGDVMLDRYWFGAVERISPEAPVPVVRVTREEERLGGAANVALNVKSLGARATLLTVVGDDEPAHTLKRLLERDGIDTLLGSDPQLYTIVKLRVIGRSQQLIRIDFENQPDHEVLAEMLQDYETTLAEQDAVLFSDYGKGGLEHIPRMIELARRSGKPVLVDPKGSDYRRYAGASVITPNRAELAQVVGAWSSEAQLRERAQALRVELGLEALLLTRSEEGMTLFDARGDTSVPAQAREVFDVTGAGDTVIATMAAMIACGLSPREAMPLANRAGSIVVGKFGTASVSYDELFE” as the sequence, how does the “soluble on expression in E. coli” value read?
**A.** not soluble

**Q.** For “MASSVLEMIKEEVTCPICLELLKEPVSADCNHSFCRACITLNYESNRNTDGKGNCPVCRVPYPFGNLKPNLHVANIVERLKGFKSIPEEEQKVNICAQHGEKLRLFCRKDMMVICWLCERSQEHRGHQTALIEEVDQEYKEKLQGALRKLMKKAKICDEWQDDLQLQRVDWENQIQINVENVQRQFKGLRDLLDSKENEELQKLKKEKKEVMEKLEESENELEDQTELVRDLISDVEHHLQLSTLEMLQGANCVLRRSQSLSLQQPQSVPQKRKRTFQAPDLKGMLQVYQGLMDIQQYWVHMTLHARNNAVIAINKEKRQIQYRSYNTVPVSEIYHLGVLGYPALSSGKHYWEVDISRSDAWLLGLNDGKCAQPQLHSKEEMGIKKNLHSQIKQNVLFQPKCGYWVIGMKNPSVYNAFDECSITHNSSILVISLPDCPSRVGVFLDRKAGTLSFYDVSNCGALIYRFYDPAFPVEVYPYFNPMKCSEPMTICGPPS”, which “soluble on expression in E. coli” value is on record?
**A.** soluble
